B1: D domain SEQ ID NO: 851 (designed binder)
chain: MGSWHEFYDRLDAIYFRLWALGGSEAELAAFEKEIAAFESELQAYKGKGNPEVELLRLLAAEIRKELQAYRHN
B2: D domain SEQ ID NO: 854 (designed binder)
chain: MGSWVEFSGRLIAIDNRLWALGGSEAELAAFEKEIAAFESELQAYKGKGNPEVEYLRMWAAEIRYILQAYRHN
B3: D domain SEQ ID NO: 852 (designed binder)
chain: MGSWHEFITRLEAIDQRLWALGGSEAELAAFEKEIAAFESELQAYKGKGNPEVEYLRFWAAEIRFILQAYRHN
B4: D domain SEQ ID NO: 853 (designed binder)
chain: MGSWMEFFDRLVAIDERLWALGGSEAELAAFEKEIAAFESELQAYKGKGNPEVEYLRMWAAEIRFLLQAYRHN
B5: D-domain SEQ ID NO: 74 (designed binder)
chain: MGSWFEFQHRLEAISMRLHALGGSEAELAAFEKEIAAFESELQAYKGKGNPEVEELRWQAAYIRVVLQAYRHN
B6: D-domain SEQ ID NO: 105 (designed binder)
chain: MGSWIEFSHRLEAIVDRLGALGGSEAELAAFEKEIAAFESELQAYKGKGNPEVEELRNTAAIIRVYLQAYRHN
B7: D-domain SEQ ID NO: 77 (designed binder)
chain: MGSWYEFQVRLQAISWRLKALGGSEAELAAFEKEIAAFESELQAYKGKGNHEVEELRIQAALIRVMLQAYRHN
B8: D-domain SEQ ID NO: 75 (designed binder)
chain: MGSWVEFQSRLEAIATRLRALGGSEAELAAFEKEIAAFESELQAYKGKGNPEVEELRWQAAWIRMMLQAYRHN
B9: D-domain SEQ ID NO: 76 (designed binder)
chain: MGSWEEFQYRLGAIAARLQALGGSEAELAAFEKEIAAFESELQAYKGKGNPEVEELRWQAAMIRFMLQAYRHN
B10: D-domain SEQ ID NO: 70 (designed binder)
chain: MGSWSEFYDRLYAINQRLFALGGSEAELAAFEKEIAAFESELQAYKGKGNPEVEDLRWYAAFIRAQLQAYRHN
B11: D-domain SEQ ID NO: 71 (designed binder)
chain: MGSWYEFYDRLDAIVHRLDALGGSEAELAAFEKEIAAFESELQAYKGKGNPEVENLRWYAAMIRVRLQAYRHN
B12: D-domain SEQ ID NO: 63 (designed binder)
chain: MGSWSEFMNRLDAITYRLVALGGSEAELAAFEKEIAAFESELQAYKGKGNPEVELLRHYAAQIRDSLQAYRHN
B13: D-domain SEQ ID NO: 64 (designed binder)
chain: MGSWTEFMERLDAISYRLWALGGSEAELAAFEKEIAAFESELQAYKGKGNPEVEVLRDYAAIIRNSLQAYRHN
B14: D-domain SEQ ID NO: 69 (designed binder)
chain: MGSWSEFIDRLDAITYRLFALGGSEAELAAFEKEIAAFESELQAYKGKGNPEVENLRWYAGVIREQLQAYRHN
B15: D-domain SEQ ID NO: 65 (designed binder)
chain: MGSWAEFMDRLDAITYRLWALGGSEAELAAFEKEIAAFESELQAYKGKGNPEVEELRGYAAIIRSELQAYRHN
B16: D-domain SEQ ID NO: 102 (designed binder)
chain: MGSWVEFYDRLAAIRKRLYALGGSEAELAAFEKEIAAFESELQAYKGKGNPEVEELRFRAALIRIWLQAYRHN
B17: D-domain SEQ ID NO: 108 (designed binder)
chain: MGSWSEFQQRLHAIRTRLYALGGSEAELAAFEKEIAAFESELQAYKGKGNPEVEELRFEAAIIRVMLQAYRHN
B18: D-domain SEQ ID NO: 110 (designed binder)
chain: MGSWQEFTGRLHAIRHRLEALGGSEAELAAFEKEIAAFESELQAYKGKGNPEVEELRFEAAYIRVWLQAYRHN
B19: D-domain SEQ ID NO: 109 (designed binder)
chain: MGSWYEFQNRLGAINRRLNALGGSEAELAAFEKEIAAFESELQAYKGKGNPEVEELRFEAAIIRVMLQAYRHN
B20: D-domain SEQ ID NO: 60 (designed binder)
chain: MGSWSEFAWRLEAIHQRLSALGGSEAELAAFEKEIAAFESELQAYKGKGNPEVESLRLFAAQIRENLQAYRHN
B21: D-domain SEQ ID NO: 106 (designed binder)
chain: MGSWEEFSDRLEAILRRLDALGGSEAELAAFEKEIAAFESELQAYKGKGNPEVEDLRFAAAIIRVQLQAYRHN
B22: D-domain SEQ ID NO: 107 (designed binder)
chain: MGSWMEFSHRLDAIHERLYALGGSEAELAAFEKEIAAFESELQAYKGKGNPEVEDLRFAAAIIRVQLQAYRHN
B23: D-domain SEQ ID NO: 62 (designed binder)
chain: MGSWTEFAWRLIAIDQRLMALGGSEAELAAFEKEIAAFESELQAYKGKGNPEVEILRELAAEIRFHLQAYRHN
B24: D-domain SEQ ID NO: 66 (designed binder)
chain: MGSWIEFQERLDAIFYRLHALGGSEAELAAFEKEIAAFESELQAYKGKGNPEVEDLRDAAATIRRQLQAYRHN
B25: D-domain SEQ ID NO: 67 (designed binder)
chain: MGSWIEFQQRLDAIFYRLYALGGSEAELAAFEKEIAAFESELQAYKGKGNPEVENLRDMAAIIRKQLQAYRHN
B26: D-domain SEQ ID NO: 68 (designed binder)
chain: MGSWYEFQSRLDAIFYRLFALGGSEAELAAFEKEIAAFESELQAYKGKGNPEVEKLREAAASIRTQLQAYRHN
B27: D-domain SEQ ID NO: 47 (designed binder)
chain: MGSWHEFAWRLQAINQRLNALGGSEAELAAFEKEIAAFESELQAYKGKGNPEVEELRHYAAHIRNGLQAYRHN
B28: D-domain SEQ ID NO: 56 (designed binder)
chain: MGSWVEFAWRLTAIDQRLSALGGSEAELAAFEKEIAAFESELQAYKGKGNPEVENLRFYAAKIRSHLQAYRHN
B29: D-domain SEQ ID NO: 59 (designed binder)
chain: MGSWTEFAWRLEAINQRLQALGGSEAELAAFEKEIAAFESELQAYKGKGKPEVEALRAYAAKIRTRLQAYRHN
B30: D-domain SEQ ID NO: 53 (designed binder)
chain: MGSWIEFSWRLEAIRQRLQALGGSEAELAAFEKEIAAFESELQAYKGKGNPEVESLRSYAARIRQELQAYRHN
B31: D-domain SEQ ID NO: 48 (designed binder)
chain: MGSWNEFAWRLTAIEQRLMALGGSEAELAAFEKEIAAFESELQAYKGKGNPEVEELRHYAAGIRDNLQAYRHN
B32: D-domain SEQ ID NO: 58 (designed binder)
chain: MGSWVEFAWRLTAIHTRLWALGGSEAELAAFEKEIAAFESELQAYKGKGNPEVESLRKYAAKIRKQLQAYRHN
B33: D-domain SEQ ID NO: 50 (designed binder)
chain: MGSWIEFAWRLQAIHQRLDALGGSEAELAAFEKEIAAFESELQAYKGKGNPEVEDLREYAANIRDSLQAYRHN
B34: D-domain SEQ ID NO: 52 (designed binder)
chain: MGSWHEFTWRLIAIRERLFALGGSEAELAAFEKEIAAFESELQAYKGKGNPEVEELREYAASIRNMLQAYRHN
B35: D-domain SEQ ID NO: 54 (designed binder)
chain: MGSWVEFSWRLEAIRQRLQALGGSEAELAAFEKEIAAFESELQAYKGKGNPEVESLRSYAARIRQELQAYRHN
B36: D-domain SEQ ID NO: 55 (designed binder)
chain: MGSWVEFSWRLEAIRQRLTALGGSEAELAAFEKEIAAFESELQAYKGKGNPEVEDLRKYAARIRGELQAYRHN
B37: D-domain SEQ ID NO: 51 (designed binder)
chain: MGSWHEFTWRLVAIQQRLQALGGSEAELAAFEKEIAAFESELQAYKGKGNPEVEELRKFAAKIRYELQAYRHN
B38: D-domain SEQ ID NO: 57 (designed binder)
chain: MGSWVEFAWRLEAIKQRLTALGGSEAELAAFEKEIAAFESELQAYKGKGNPEVEELRLYAAKIRRVLQAYRHN
B39: D-domain SEQ ID NO: 61 (designed binder)
chain: MGSWNEFAWRLIAINQRLWALGGSEAELAAFEKEIAAFESELQAYKGKGNPEVESLRHFAANIRNDLQAYRHN
B40: D-domain SEQ ID NO: 98 (designed binder)
chain: MGSWSEFRGRLQAIHSRLNALGGSEAELAAFEKEIAAFESELQAYKGKGNPEVEELRYSAAIIRIYLQAYRHN

The first assay deals with T1, P26 (human, UniProt P02771 381-609, limits assumed).
T1 construct: also called AFP p26
T1 sequence: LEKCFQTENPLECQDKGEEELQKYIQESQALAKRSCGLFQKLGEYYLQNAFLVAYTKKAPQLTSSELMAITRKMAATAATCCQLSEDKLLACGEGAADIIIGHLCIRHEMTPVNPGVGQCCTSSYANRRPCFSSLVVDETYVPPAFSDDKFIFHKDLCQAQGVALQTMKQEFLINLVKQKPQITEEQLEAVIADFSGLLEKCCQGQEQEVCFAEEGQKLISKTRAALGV
The experiment in a line: ELISA, format not described. Details: unit not given here. A general note: ELISA stands for enzyme-linked immunosorbent assay.
With B1, the ELISA_avg was 9.6.

B2 had an ELISA_avg of 5.28.

In the case of B3, the ELISA_avg was found to be 16.9.

For the molecule B4, the ELISA_avg was 18.6.

For a further assay, the target named is T2, BCMA (Homo sapiens (Human), UniProt Q02223 1-54, limits assumed).
T2 sequence: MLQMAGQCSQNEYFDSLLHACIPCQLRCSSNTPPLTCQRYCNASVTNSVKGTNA
The experiment in a line: ELISA, format not described. Set-up: unit not given here.
As to B5, the ELISA_avg was 4.05.

The molecule B6 yielded an ELISA_avg of 18.7.

B7 returned an ELISA_avg of 14.2.

The molecule B8 came in with an ELISA_avg of 18.

B9: the ELISA_avg came out at 3.11.

B10 gave an ELISA_avg of 5.98.

For B11, the ELISA_avg worked out at 14.7.

B12 registered an ELISA_avg of 12.9.

As to B13, the ELISA_avg is 9.87.

Molecule B14 came in with an ELISA_avg of 10.2.

With B15, the ELISA_avg was determined as 10.8.

B16: the ELISA_avg is 9.76.

With B17, the ELISA_avg was 11.6.

B18: the ELISA_avg turned out to be 3.31.

In turn, B19 came in with an ELISA_avg of 4.68.

As to B20, the ELISA_avg is 18.

In turn, B21 had an ELISA_avg of 9.08.

Turning to B22, the ELISA_avg worked out at 6.3.

In turn, B23 came in with an ELISA_avg of 8.55.

B24 registered an ELISA_avg of 18.6.

Regarding B25, the ELISA_avg stood at 20.

As to B26, the ELISA_avg amounted to 14.1.

B27 displayed an ELISA_avg of 13.1.

For B28, the ELISA_avg stood at 8.43.

The molecule B29 came in with an ELISA_avg of 15.1.

On to B30, for which the ELISA_avg worked out at 9.92.

Take B31: the ELISA_avg turned out to be 18.3.

B32 showed an ELISA_avg of 6.08.

As to B33, the ELISA_avg is 19.

Consider B34, for which the ELISA_avg stood at 13.

Molecule B35 came in with an ELISA_avg of 19.1.

Molecule B36 returned an ELISA_avg of 21.3.

Take B37: the ELISA_avg came out at 19.5.

B38 showed an ELISA_avg of 8.9.

On to B39, for which the ELISA_avg came out at 11.5.

On to B40, for which the ELISA_avg amounted to 7.58.

Values taken from patent publication US20250026849A1 (ARCELLX, published 2025).
